These results are taken from patent US20220033501A1 (SHANGHAI PHARMAEXPLORER, published 2022).

Assay [1] concerns the target T1, murine TIM-3 extracellular domain protein with hFc tag (mTIM-3-hFc) (mouse, UniProt Q8VIM0 29-191).
T1 construct: also called mouse TIM-3 extracellular domain protein; not shown: human IgG Fc fragment (hFc) of the pCpC vector
T1 chain: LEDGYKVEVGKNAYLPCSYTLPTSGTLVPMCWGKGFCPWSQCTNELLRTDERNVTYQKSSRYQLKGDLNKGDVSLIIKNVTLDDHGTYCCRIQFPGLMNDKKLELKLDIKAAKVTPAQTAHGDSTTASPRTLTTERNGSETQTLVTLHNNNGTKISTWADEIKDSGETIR
The assay can be described thus: ELISA, coated mouse TIM-3 ECD protein, 0.0067 nM antibody.

In assay [2] the target is T2, human TIM-3 extracellular domain protein with hFc tag (hTIM-3-hFc) (human, UniProt Q8TDQ0 22-200).
T2 construct: not shown: human IgG Fc fragment (hFc) of the pCpC vector
T2 sequence: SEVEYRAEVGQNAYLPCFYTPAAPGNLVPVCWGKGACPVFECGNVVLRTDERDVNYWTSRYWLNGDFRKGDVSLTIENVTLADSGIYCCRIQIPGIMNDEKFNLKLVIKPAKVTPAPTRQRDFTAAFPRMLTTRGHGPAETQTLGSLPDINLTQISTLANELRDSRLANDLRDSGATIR
The assay can be described thus: ELISA, coated human TIM-3 ECD protein, 0.0067 nM antibody.

For assay [3], the target named is T3, human TIM-3 on CHOK1 stable cell line (CHOK1-hTIM-3) (human, UniProt Q8TDQ0 22-301).
T3 sequence: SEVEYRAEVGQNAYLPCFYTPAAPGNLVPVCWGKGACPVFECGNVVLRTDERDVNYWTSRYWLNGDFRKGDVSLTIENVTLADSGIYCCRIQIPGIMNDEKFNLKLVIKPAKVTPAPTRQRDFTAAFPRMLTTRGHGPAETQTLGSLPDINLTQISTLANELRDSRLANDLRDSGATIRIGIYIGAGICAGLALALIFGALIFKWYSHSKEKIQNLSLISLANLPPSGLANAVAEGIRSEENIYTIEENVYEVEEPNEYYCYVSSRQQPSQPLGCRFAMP
In words: FACS, CHOK1-hTIM-3 cells, 0.064 nM antibody.

Assay [4] concerns the target T3, human TIM-3 on CHOK1 stable cell line …. In words: FACS, CHOK1-hTIM-3 cells, 0 nM antibody.
The target of assay [5] is T4, monkey TIM-3 on CHOK1 stable cell line (CHOK1-cTIM-3) (monkey).
T4 chain: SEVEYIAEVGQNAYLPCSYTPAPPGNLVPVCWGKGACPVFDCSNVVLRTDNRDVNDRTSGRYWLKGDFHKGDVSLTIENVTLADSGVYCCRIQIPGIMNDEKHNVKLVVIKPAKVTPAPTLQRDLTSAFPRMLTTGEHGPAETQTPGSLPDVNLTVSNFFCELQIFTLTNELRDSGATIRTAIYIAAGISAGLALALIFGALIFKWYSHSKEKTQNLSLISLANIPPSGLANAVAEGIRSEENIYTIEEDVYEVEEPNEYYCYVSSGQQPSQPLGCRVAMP
The assay can be described thus: FACS, CHOK1-cTIM-3 cells, 1.6 nM antibody.

The target of assay [6] is T3, human TIM-3 on CHOK1 stable cell line …. The assay can be described thus: FACS, CHOK1-hTIM-3 cells, 8 nM antibody.

B1: 18D2H2 fully human TIM-3 antibody (human IgG4, kappa) (antibody, V domains shown)
VH: EVQLVESGGDLVQPGGSLRLSCAASGFTFSTYWMTWVRQAPGRGLEWVANIKQDGSAKYYVDSVKGRFTLSRDDAKNSLYLQMNSLRAEDTAVYYCARGSNWFDYWGQGTLVTVSS
VL: ETVMTQSPATLSVSPGERATLSCRANQNVYSNLAWYQQKPGQAPRLLIYDASTRATGFPARFSGSGSGTEFTLTISSLQSEDFAVYYCQQYNNWPLTFGGGTKVEIK
As for B1, the OD450 in assay [1] was determined as 0.22; in assay [2] it was 0.32. In addition, the Mean fluorescence intensity in assay [3] was determined as 32.9; in assay [4] it was 2.8; in assay [5], 333; in assay [6], 268.

B2: 34B6D8 fully human TIM-3 antibody (human IgG4, kappa) (antibody, V domains shown)
VH: EVQLVESGGGLVQPGGSLRLSCAASGFTFSTYWMTWVRQAPGKRLEWVANIKQGGGDKYYVDSVKGRFTISTDNAKNSLYLQMNSLRAEDTAVYYCARGSNWFDPWGQGTLVTVSS
VL: EIVMTQSPATLSMSPGERATLSCRASQSVYDNLAWYQQKPGQAPRLLIYGASTRATGIPARFSGSGSGTEFTLTISSLQSEDFALYYCQQYTHWPITFGQGTRLEIK
On to B2, for which the OD450 in assay [1] came to 0.24; in assay [2], 0.29. Also, the Mean fluorescence intensity came to 22.2 in assay [3], 2.9 in assay [4], 266 in assay [5] and 219 in assay [6].

B3: 39E5H1 fully human TIM-3 antibody (human IgG4, kappa) (antibody, V domains shown)
VH: EVQLVESGGGLVQPGGSLRLSCAASGFTFSSYWMSWVRQAPGKGLEWVANIKRGGSERYYVDSVKGRFTISGDNAKNSVYLQMNSLRAEDTAVYYCARGSNWFDPWGQGTLVTVSS
VL: ETVMTQSPAILSVSPGERATLSCRASQSVYSNLAWYQQKLGQAPRLLIYDASTRATGIPARFSGSGSGTEFTLTISSLQSEDFAVYYCQQYNNWPITFGQGTRLEIK
With B3, the OD450 in assay [1] was found to be 0.23; in assay [2] it was 0.25. The Mean fluorescence intensity turned out to be 27 in assay [3], 2.8 in assay [4], 315 in assay [5] and 234 in assay [6].
